“Also recorded” adds a separate entry of the source. Read-outs that look alike come from different tables or passages of the source.
Assays:
Assay type in all cases: cell-based
Bob = biological target: T1, Bob (Homo sapiens, UniProt P49685); assay: gp120-induced calcium flux, Ghost (3) cells transfected with Bob (Fluo-4); parameters: key to minimal concentration of gp120 resulting in a significant calcium flux: — = no calcium flux seen at any dilution tested; details: for minimal concentration of gp120 resulting in a significant calcium flux: Ghost (3) Bob cells
T1 construct: host or cells: Ghost (3) cells (human osteosarcoma, also transfected with CD4 and a GFP reporter)
T1 sequence (P49685 1-360): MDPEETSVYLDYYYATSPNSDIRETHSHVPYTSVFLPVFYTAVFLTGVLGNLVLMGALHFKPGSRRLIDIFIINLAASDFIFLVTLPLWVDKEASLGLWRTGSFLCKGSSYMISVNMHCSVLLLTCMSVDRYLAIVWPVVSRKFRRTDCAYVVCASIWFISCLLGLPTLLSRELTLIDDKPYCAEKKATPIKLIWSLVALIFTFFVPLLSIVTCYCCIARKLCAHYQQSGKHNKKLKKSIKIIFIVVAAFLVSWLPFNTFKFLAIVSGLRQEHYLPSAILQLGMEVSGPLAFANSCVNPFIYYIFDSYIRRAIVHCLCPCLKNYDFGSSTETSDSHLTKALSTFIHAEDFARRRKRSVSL
Procedure: (§1) Calcium studies were done on HT-29 cells and Ghost (3) cells loaded with Fluo 4. The cells were placed in Locke's buffer containing 5 μg/ml Fluo 4 AM ester (Molecular Probes) for 20 to 30 minutes, then in Locke's buffer for an additional 30 minutes before testing. Various concentrations of gp120IIIB (X4 trophic), gp120CM235 (R5 trophic), gp120mN (X4 trophic), gp12093TH975 (nonsyncytium-inducing primary isolate from an asymptomatic subject, trophism undetermined but likely R5), and gp120SF2 (X4R5 trophic), ranging from 10 nM to less than 1 pM, were added in Locke's buffer.^6 The gp120 proteins were obtained from the AIDS Research Reagent Referral Program. Some HT-29 cells were given one of the following pretreatments: 50 μg/ml anti-Bob37 overnight, 1 μg/ml pertussis toxin overnight, or 4.6 μg/ml U73122 for one hour. With the HT-29 cells only, similar tests were also performed with SDF-1, MIP-1α, MIP-1β, and RANTES rather than gp120. The cells were visualized every 4 seconds in a confocal microscope, using 488 nm argon laser excitation and detection filters appropriate for fluorescein-like dyes.
(§2) Human osteosarcoma cell lines were transfected to express CD4, one or another of the HIV coreceptors, and a Green Fluorescent Protein reporter for active HIV infection, for the purpose of testing which of the known coreceptors was used to induce HIV infection by a given HIV strain (Morner A. J Virol 73:2343-9, 1999 and Deng K Nature 388:296-300, 1997). These cells were obtained from the AIDS Research and Reference Reagent Program, courtesy of Dr. Vineet KewalRamani and Dr. Dan Littman. These cells were grown in DMEM with 10% bovine calf serum supplemented with 0.5 mg/ml G418, 0.1 mg/ml hygromycin, and 1 microgram/ml puromycin, and were used at low passage number (less than 10). We have discovered that these cell lines are also activated by gp120 of certain viral strains, inducing a calcium flux in these cells.
Within 4 days of plating, coreceptor-transfected Ghost (3) cells (as well as the parent cell line not transfected to express any HIV coreceptors as a control) were put in Locke's medium, then treated with Fluo-4 (5 micrograms/ml for 30 minutes at 37° C.). After an additional 30 minute incubation in Locke's buffer at room temperature, the cells were examined in a confocal microscope while gp120 of various viral strains was added, and the cells were examined at 4 second intervals to look for a gp120-induced calcium flux. The results are given in the following table, expressed as the minimal concentration of gp120 resulting in a significant calcium flux. “−” means that no reproducible calcium flux was observed. “ND” means that the gp120 of that viral strain was not tested with the stated coreceptor.
These cells were treated with serial dilutions (100 or 250 nM to at least 1 pM, or even less if calcium fluxes were noted) of gp120. Gp120s from each of four HIV-1 strains: IIIB, CM235, SF2, and […] were used. Listed is the greatest dilution which induced a significant, reproducible calcium flux. The parental line is known to express CXCR4 at very low levels. Those results indicated by an asterisk are thought to represent this artifact.

CCR8 = biological target: T2, CCR8 (Homo sapiens, UniProt P51685); assay: gp120-induced calcium flux, Ghost (3) cells transfected with CCR8; parameters: key: — = no calcium flux seen at any dilution tested; details: Ghost (3) CCR8 cells
T2 construct: host or cells: Ghost (3) cells (human osteosarcoma, CD4+)
Text: as §2
(§3) Within 4 days of plating, coreceptor-transfected Ghost (3) cells (as well as the parent cell line not transfected to express any HIV coreceptors as a control) were put in Locke's medium, then treated with Fluo-4 (5 micrograms/ml for 30 minutes at 37° C.). […] The results are given in the following table, expressed as the minimal concentration of gp120 resulting in a significant calcium flux. […]

CCR5 = biological target: T3, CCR5 (Homo sapiens, UniProt P51681); assay: gp120-induced calcium flux, Ghost (3) cells transfected with CCR5; parameters: key: — = no calcium flux seen at any dilution tested; details: Ghost (3) CCR5 cells
T3 construct: host or cells: Ghost (3) cells (human osteosarcoma, CD4+)
Procedure: as §1, §2
(§4) Within 4 days of plating, coreceptor-transfected Ghost (3) cells (as well as the parent cell line not transfected to express any HIV coreceptors as a control) were put in Locke's medium, then treated with Fluo-4 (5 micrograms/ml for 30 minutes at 37° C.). After an additional 30 minute incubation in Locke's buffer at room temperature, the cells were examined in a confocal microscope while gp120 of various viral strains was added, and the cells were examined at 4 second intervals to look for a gp120-induced calcium flux. The results are given in the following table, expressed as the minimal concentration of gp120 resulting in a significant calcium flux. “−” means that no reproducible calcium flux was observed. “ND” means that the gp120 of that viral strain was not tested with the stated coreceptor. […]

CCR1 = biological target: T4, CCR1 (Homo sapiens, UniProt P32246); assay: gp120-induced calcium flux, Ghost (3) cells transfected with CCR1; parameters: key: — = no calcium flux seen at any dilution tested; details: Ghost (3) CCR1 cells
T4 construct: host or cells: Ghost (3) cells (human osteosarcoma, CD4+)
T4 sequence (P32246 1-355): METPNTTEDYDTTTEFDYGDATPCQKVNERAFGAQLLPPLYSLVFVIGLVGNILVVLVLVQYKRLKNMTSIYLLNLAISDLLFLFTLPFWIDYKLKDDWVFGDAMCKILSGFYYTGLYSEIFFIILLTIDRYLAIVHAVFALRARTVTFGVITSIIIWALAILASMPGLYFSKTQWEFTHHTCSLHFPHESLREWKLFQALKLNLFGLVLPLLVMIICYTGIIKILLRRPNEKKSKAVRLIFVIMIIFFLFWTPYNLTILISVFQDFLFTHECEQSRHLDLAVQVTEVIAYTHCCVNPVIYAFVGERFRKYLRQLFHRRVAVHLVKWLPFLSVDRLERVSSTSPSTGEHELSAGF
Text: as §2, §3

CXCR4 = biological target: T5, CXCR4 (Homo sapiens, UniProt P61073); assay: gp120-induced calcium flux, Ghost (3) cells transfected with CXCR4; parameters: key: — = no calcium flux seen at any dilution tested; details: Ghost (3) CXCR4 cells
T5 construct: host or cells: Ghost (3) cells (human osteosarcoma, CD4+)
Procedure: as §1, §2, §4

CCR2b = biological target: T6, CCR2b (Homo sapiens, UniProt P41597); assay: gp120-induced calcium flux, Ghost (3) cells transfected with CCR2b; parameters: key: — = no calcium flux seen at any dilution tested; details: Ghost (3) CCR2b cells
T6 construct: host or cells: Ghost (3) cells (human osteosarcoma, CD4+)
T6 sequence (P41597 1-360 isoform P41597-2): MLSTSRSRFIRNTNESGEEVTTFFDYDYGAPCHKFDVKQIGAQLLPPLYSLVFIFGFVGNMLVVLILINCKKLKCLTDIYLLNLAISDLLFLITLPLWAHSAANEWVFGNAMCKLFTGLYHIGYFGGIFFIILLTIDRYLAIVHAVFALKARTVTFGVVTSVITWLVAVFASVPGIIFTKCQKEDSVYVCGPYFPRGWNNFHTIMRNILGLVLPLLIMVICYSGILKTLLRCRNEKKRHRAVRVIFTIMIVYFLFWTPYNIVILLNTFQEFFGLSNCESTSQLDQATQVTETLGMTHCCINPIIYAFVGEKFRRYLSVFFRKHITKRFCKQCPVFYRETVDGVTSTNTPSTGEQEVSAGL
Text: as §2, §3

Row | Substance | Bob activation / calcium signals in Bob-transfected Ghost (3) cells, in words (Bob) | minimal concentration of gp120 resulting in a significant calcium flux (Bob; serial dilutions) | minimal concentration of gp120 resulting in a significant calcium flux (CCR8) | minimal concentration of gp120 resulting in a significant calcium flux (CCR5) | minimal concentration of gp120 resulting in a significant calcium flux (CCR5; listed as IIIB) | minimal concentration of gp120 resulting in a significant calcium flux (CCR1) | minimal concentration of gp120 resulting in a significant calcium flux (CXCR4) | minimal concentration of gp120 resulting in a significant calcium flux (CXCR4; listed as IIIB) | minimal concentration of gp120 resulting in a significant calcium flux (CCR2b) | minimal concentration of gp120 resulting in a significant calcium flux (Bob; 100 or 250 nM to at least 1 pM) | Bob activation / calcium signals in Bob-transfected Ghost (3) cells, in words (Bob; listed as SF2)
1 | gp120IIIB: HIV-1 envelope surface protein gp120 of strain IIIB (X4 trophic), from the AIDS Research Reagent Referral Program | extremely potent activator | 15 fM | — | about 1 nM | 250 nM | — | at least 150 pM | 150 pM | 250 nM |  | 
2 | gp120SF2: gp120 of HIV strain SF2 (X4R5 trophic) |  |  | — | — |  | — | — |  | — | — | do not activate Bob; also recorded: did not cause calcium signals
